From article PMC7060258, “A new multigene HCIQ subfamily from the sea anemone Heteractis crispa encodes Kunitz-peptides exhibiting neuroprotective activity against 6-hydroxydopamine” (Scientific Reports, 2020)
Residue numbers refer to the chain shown, from its start. No end group written: not given here.

B1: recombinant HCIQ4c7 Kunitz-type peptide from Heteractis crispa (peptide)
chain: IQGNICSEPKKVGRCRESFPRFYFDSETGKCTPFIYGGCGGNGNNFETLHACRAICRA
modifications: not fully specified; cysteine pairing not given here
B2: pancreatic kallikrein (enzyme)
chain: not shown
modifications: Species and supplier are not given; porcine pancreatic kallikrein is assumed as the usual commercial enzyme. Limits are the active chain of the candidate entry. The natural enzyme is glycosylated …
B3: recombinant HCIQ2c1 Kunitz-type peptide from Heteractis crispa (peptide, UniProt A0A6B7FBD3 28-85, looked up)
chain: B1 chain with E17G
notes: HCIQ2c1, Kunitz-type peptide of the sea anemone Heteractis crispa; mature peptide of 58 aa (precursor 85 aa: signal peptide 22 aa, propeptide 5 aa ending in Lys-Arg at 26-27, mature peptide 58 aa); begins with Ile-Gln; measured mass 6330 Da; numbers count on: the mature protein; also called rHCIQ2c1; source: E. coli BL21 (DE3), thioredoxin fusion, purified (Ni-NTA, CNBr cleavage, RP-HPLC)

Tests used:
Conditions in all cases: both partners purified
trypsin = assay: enzyme inhibition (Dixon method); trypsin 208 nM, substrate BAPNA 0.6 and 1.2 mM, peptide 0–26.6 µM (rHCIQ2c1) or 0–24 µM (rHCIQ4c7); three parallel experiments
trypsin, sequence (P00760 24-246): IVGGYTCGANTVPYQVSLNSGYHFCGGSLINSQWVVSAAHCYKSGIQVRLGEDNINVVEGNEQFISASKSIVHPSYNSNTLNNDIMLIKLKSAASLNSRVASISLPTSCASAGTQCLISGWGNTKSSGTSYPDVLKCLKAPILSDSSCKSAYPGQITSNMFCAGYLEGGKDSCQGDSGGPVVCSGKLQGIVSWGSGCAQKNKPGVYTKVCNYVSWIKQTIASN

[1] = target: T1, human neutrophil elastase (human, UniProt P08246 30-267); assay: SPR; Biacore 3000; peptides covalently immobilised on a CM4 chip (970 RU rHCIQ2c1, 460 RU rHCIQ4c7); proteinases 1 nM to 5 μM flowed over; 25 °C; HBS: 0.15 M NaCl, 0.01 M HEPES, pH 7.4
T1 sequence (looked up): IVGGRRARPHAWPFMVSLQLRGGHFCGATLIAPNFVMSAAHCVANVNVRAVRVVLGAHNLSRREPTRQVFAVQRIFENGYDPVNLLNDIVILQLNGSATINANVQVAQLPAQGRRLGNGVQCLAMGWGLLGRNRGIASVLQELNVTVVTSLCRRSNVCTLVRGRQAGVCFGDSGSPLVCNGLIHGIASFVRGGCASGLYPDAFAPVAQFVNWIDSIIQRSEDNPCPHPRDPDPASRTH

[2] = target: B3; assay: as above

For B1, the Ki (trypsin) was 190 nM, the Ka [1] was 1.05e+06 M⁻¹ and the Kd [1] was 955 nM. The koff [1] was 0.0114 s⁻¹ and the kon [1] was 11900 M⁻¹ s⁻¹.

B2 gave a Ka [2] of 2.04e+06 M⁻¹, a Kd [2] of 490 nM and a koff [2] of 0.00379 s⁻¹. It also gave a kon [2] of 49400 M⁻¹ s⁻¹.

Binder B3 has a Ki (trypsin) of 52 nM, a Ka [1] of 7.9e+06 M⁻¹ and a Kd [1] of 127 nM. For the same binder, the koff [1] was 0.00861 s⁻¹ and the kon [1] was 68000 M⁻¹ s⁻¹.
